Reference: patent US9150638B2, “Factor XII inhibitors for treating interstitial lung disease” (Justus-Liebig-Universität Giessen, priority 2010, dated 2015)

Columns and labels:
murine lung fibroblasts = experiment: Proliferation assay, [3H]-thymidine incorporation after FXIIa stimulation; type: cell-based; conditions: for FXIIa-induced proliferation ([3H]-thymidine incorporation): added or preincubated 1-2 hours before FXIIa, 10.0 μM PD98059, 5 μM SP600125, 0.7 μM Wortmannin, 3 μM SB203580, blocking antibodies 5 μg/ml
Description: Human lung specimens of the pulmonary parenchyma and mouse lungs were chopped into <1 mm^3 pieces. The minced pieces were washed twice with PBS and then plated in 100-mm dishes (Greiner-bio-one, Frickenhausen, Germany). The specimens were cultured with Dulbecco's modified Eagle's medium (DMEM; Invitrogen, Karlsruhe, Germany) supplemented with 10% fetal calf serum (FCS; HyClone, South Logan, UT), and 1% penicillin/streptomycin (Invitrogen) in humidified atmosphere of 5% CO2 at 37° C. Purity of isolated fibroblasts was verified by positive staining for vimentin, fibronectin and collagen IV. All experiments were carried out with lung fibroblasts from passages 3-4. The mouse NIH3T3 fibroblasts were cultured in DMEM supplemented with 10% FCS, and 1% penicillin/streptomycin in humidified atmosphere of 5% CO2 at 37° C. The primary murine lung fibroblasts were seeded in 48-well plates and starved in serum free DMEM (Dulbecco's Modified Eagle's Medium) for 24 hours prior to FXIIa (American Diagnostica, Stamford, Conn.) stimulation. In some experiments cells were preincubated with 5 μg/ml anti-uPAR (R&D Systems, Wiesbaden, Germany), anti-β1-integrin or anti-α5-integrin (both from Millipore, Billerica, Mass.) blocking antibodies 1-2 hours before exposure to FXIIa. In addition in some experiment 10.0 μM PD98059, 5 μM SP600125, 0.7 μM Wortmannin, 3 μM SB203580 (all from Calbiochem, Darmstadt, Germany) were added to the cell culture medium 1-2 hours prior to the addition of FXIIa. Cells were treated with 3-9 μg/ml FXIIa alone or in the presence of its specific inhibitors: Corn Trypsin Inhibitor ([…]-chloromethylketone (PCK, Bachem, Weil am Rhein, Germany) or uPAR synthetic peptides. After 24-36 hours the cells were exposed to [3H]Thymidine (0.2 μCi per well) for 6-12 hours, rinsed three times with PBS and solubilized with 0.2 ml 0.5M sodium hydroxide. 0.1 ml of the solubilized material was quantified by liquid scintillation counting (TRI-CARB® 1500, A Canbera Company, Meriden, Conn.). [^3H]Thymidine incorporation was expressed as absolute radioactivity (counts per minute per well).

FXII [1] = experiment: TGF-β1-induced FXII expression in HLF; type: cell-based, human; conditions: for FXII expression in response to TGF-β1 (Western blot): HLF treated with inhibitor 1 h prior to TGF-β1 for 48 h
Description: Human lung specimens of the pulmonary parenchyma and mouse lungs were chopped into <1 mm^3 pieces. The minced pieces were washed twice with PBS and then plated in 100-mm dishes (Greiner-bio-one, Frickenhausen, Germany). The specimens were cultured with Dulbecco's modified Eagle's medium (DMEM; Invitrogen, Karlsruhe, Germany) supplemented with 10% fetal calf serum (FCS; HyClone, South Logan, UT), and 1% penicillin/streptomycin (Invitrogen) in humidified atmosphere of 5% CO2 at 37° C. Purity of isolated fibroblasts was verified by positive staining for vimentin, fibronectin and collagen IV. All experiments were carried out with lung fibroblasts from passages 3-4. The mouse NIH3T3 fibroblasts were cultured in DMEM supplemented with 10% FCS, and 1% penicillin/streptomycin in humidified atmosphere of 5% CO2 at 37° C.
(§1) Proteins separated on SDS polyacrylamide gel were transferred to a PVDF membrane (Amersham Biosciences, Freiburg, Germany) using wet transfer technique in transfer buffer (25 mM Tris, 192 mM Glycine, 20% (v/v) Methanol) for 1 h at 100V. After blocking with 5% non-fat dry milk in tris-buffered saline (TBS; 25 mM Tris-Cl, 150 mM NaCl, pH 7.5) containing 0.1% (v/v) Tween 20 (TBS-T), the membranes were incubated at 4° C. overnight with appropriate primary antibody diluted in 1% BSA in TBS-T. After 1 h incubation with peroxidase-labelled secondary antibody (all from Dako, Gostrup, Denmark) proteins were detected using ECL Plus Kit (Amersham Biosciences, Freiburg, Germany). To determine the amounts of protein loaded on the gel, blots were in 1 hour (stripping buffer: 100 mM Glycine, 1% HCl) and reprobed using an anti-β-actin or appropriate anti-pan antibody.
Pre-designed, commercially available siRNA sequences directed against human Smad 3 (Dharmacon, Chicago, Ill.), human JNK1 (Abnova, Heidelberg, Germany), and an universal negative-control siRNA (Ambion, Austin, Tex.) were employed. Cells were treated with siRNA (250 nM each) using the X-treme Gene siRNA Transfection Reagent (Roche). The siRNA-mediated downregulation of the target genes was assessed 72 h after transfection by Western blotting.

cyclin D1 = experiment: Immunoblot of cyclin D1 expression after FXIIa stimulation; type: cell-based, murine; conditions: 6 hours after 6 μg/ml FXIIa stimulation
Description: as §1

p44/42 = experiment: Western blot of p44/42 phosphorylation after FXIIa exposure; type: cell-based, murine; conditions: after 30 min of FXIIa exposure
Description: as §1

[2] = test system: bleomycin induced lung fibrosis; experiment: Bleomycin induced lung fibrosis in mice with intratracheal CTI
Description: Male mice weighing between 20-22 g were used in all experiments. Animals were kept according to NIH guidelines and experiments were undertaken with permission of local authorities. The animals were anesthetized by intraperitoneal injection of a mixture of ketamine hydrochloride and xylazine hydrochloride. Bleomycin in dosis 5U/kg body weight was given as aerosol. For bleomycin delivery, animals were orotracheally intubated and mechanically ventilated. A microsprayer (Penn-Century Inc, Philadelphia, Pa.) was filled with 100 μl of saline solution containing bleomycin, introduced into the tracheal cannula, positioned slightly above the carina and aerosol generation was achieved under end-expiratory breath arrest by rapidly emptying the syringe. Controls mice received vehicle only (0.9% saline). 5 mg/kg CTI and 8 mg/kg PCK, both diluted in 0.9% saline, were administrated intratracheally on day 9, 12, 15 and 18 in dosis or of mouse body weight, respectively. The mice were sacrificed after 21 days post application (if not indicated in the text) with a lethal dose of ketamine and xylazine.
Mice were tracheotomised and ventilated in a volume driven mode at a positive end-expiratory pressure of 0 kPa. Respiration rate was set at 20 breaths·min^−1 and ventilation pressure was recorded while inflating the lung at a tidal volume of 200 μL.
After sacrifice of animals, the chest was opened and the lungs were flushed via a catheter that was placed into the pulmonary artery with PBS buffer. Once the effluent was clear of blood, lungs were removed and placed in paraformaldehyde or nitrogen for further examination. For cells isolation lungs were placed in PBS buffer.
Paraffin-embedded, formalin-fixed lung tissue was sectioned at 5 microns and processed for immunohistochemical staining using appropriate primary antibody and ZytoChem Plus AP-Fast Red Kit according to the manufacturer's instructions (Zytomed Systems, Berlin, Germany). Negative controls were obtained in all cases by omitting the primary antibody.

Akt = experiment: Western blot of Akt phosphorylation after FXIIa exposure; type: cell-based, murine; conditions: after 30 min of FXIIa exposure
Description: as §1

FXII [3] = biological target: T1, FXII (Homo sapiens, UniProt P00748); experiment: FXII activity assay using chromogenic substrate, BALF from IPF patients; type: biochemical
T1 construct: increased enzymatic activity FXII in broncholaveolar lavage fluid (BALF) from IPF patients; from tissue; host or cells: bronchoalveolar lavage fluid (BALF) of IPF patients and donors
T1 sequence (P00748 20-615): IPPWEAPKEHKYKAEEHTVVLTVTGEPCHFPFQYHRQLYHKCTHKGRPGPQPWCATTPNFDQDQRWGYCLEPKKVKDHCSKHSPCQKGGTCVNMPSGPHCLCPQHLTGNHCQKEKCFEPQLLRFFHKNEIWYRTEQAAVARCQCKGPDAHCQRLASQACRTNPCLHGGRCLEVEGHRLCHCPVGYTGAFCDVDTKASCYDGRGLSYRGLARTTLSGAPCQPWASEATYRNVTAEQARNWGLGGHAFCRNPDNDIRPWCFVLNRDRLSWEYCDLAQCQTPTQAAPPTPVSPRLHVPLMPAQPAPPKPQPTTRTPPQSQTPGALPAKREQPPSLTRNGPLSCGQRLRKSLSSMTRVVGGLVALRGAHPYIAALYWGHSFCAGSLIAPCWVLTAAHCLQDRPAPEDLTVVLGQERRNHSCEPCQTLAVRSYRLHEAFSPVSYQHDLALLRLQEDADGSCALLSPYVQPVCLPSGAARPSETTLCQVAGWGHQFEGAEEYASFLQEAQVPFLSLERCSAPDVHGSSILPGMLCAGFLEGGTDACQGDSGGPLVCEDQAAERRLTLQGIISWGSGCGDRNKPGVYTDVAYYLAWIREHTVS
Description: A test for determining the catalytic activity of FXIIa is described in Kannemeier C, Shibamiya A, Nakazawa F, Trusheim H, Ruppert C, Markart P, Song Y, Tzima E, Kennerknecht E, Niepmann M, Bruehl M L, Sedding D, Massberg S, Gunther A, Engelmann B, Preissner K T. Extracellular RNA constitutes a natural procoagulant cofactor in blood coagulation. Proc Natl Acad Sci USA. 104:6388-6393, 2007. Briefly, the FXIIa-sample and a chromogenic substrate peptide is mixed, and the release of p-nitroanilin is followed over time in a photometer at 405 nm. A compound is suitable as an inhibitor of the catalytic, in particular the enzymatic activity of FXIIa if it is capable of reducing the catalytic activity in that assay in a significant manner, preferably by at least 10%, more preferably by at least 25%, most preferably by at least 50% such as at least 75% or even at least 90%.

[4] = FIG. 25D,E, bleomycin application
[5] = day 21 after bleomycin, CTI 5 mg/kg intratracheally
[6] = saline control animals which received CTI

C[S+]([O-])c1ccc(-c2nc(-c3ccncc3)c(-c3ccc(F)cc3)[nH]2)cc1 (stereo not drawn) [SB203580, reference compound]
FXIIa-induced proliferation ([3H]-thymidine incorporation) (murine lung fibroblasts): No change in DNA sythesis
FXII expression in response to TGF-β1 (Western blot) (FXII [1]): No change in FXII expression

TGF-β1: cytokine (R&D Systems) used at 10 ng/ml to stimulate cells
synthesis of FXII in HLF (FXII [1]; exposure to 10 ng/ml TGF-β1): stimulated the synthesis of FXII in a time dependent manner

COc1cccc(-c2cc(=O)c3ccccc3o2)c1N [PD98059, reference compound]
FXIIa-induced proliferation ([3H]-thymidine incorporation) (murine lung fibroblasts): reduction of murine lung fibroblasts proliferation
FXII expression in response to TGF-β1 (Western blot) (FXII [1]): No change in FXII expression

B1: FXIIa: activated factor XII (American Diagnostica) used to stimulate fibroblasts (protein)
chain: T1 sequence (P00748 20-615)
cyclin D expression (cyclin D1): increased
DNA synthesis ([3H]-thymidine incorporation) after FXIIa treatment (murine lung fibroblasts; increasing concentration of FXIIa): dose-dependent increase

B2: CTI: Corn Trypsin Inhibitor, a specific FXII activity inhibitor (Calbiochem) (protein)
chain: SAGTSCVPGWAIPHNPLPSCRWYVTSRTCGIGPRLPWPELKRRCCRELADIPAYCRCTALSILMDGAIPPGPDAQLEGRLEDLPGCPREVQRGFAATLVTEAECNLATIS
p44/42 phosphorylation (p44/42): attenuated
lung remodelling and collagen deposition ([2]; FIG. 25A, bleomycin-treated mice): largely protected against lung remodelling and collagen deposition
survival curves (Kaplan-Meier plot) ([2]; FIG. 25B, bleomycin-treated mice): significantly protected
increase in collagen content [2, 4]: significantly prevented
increase in septum thickness [2, 4]: significantly prevented
collagen accumulation (Masson-Trichrom staining) [2, 5]: markedly reduced
histologic findings in the lungs (fibrotic lesions) [2, 5]: less fibrotic lesions
lung compliance ([2]; day 21 after bleomycin, CTI 5 mg/kg intratracheally at day 9, 12, 15 and 18): significantly improved
mortality ([2]; day 21 post bleomycin challenge, CTI 5 mg/kg intratracheally at day 9, 12, 15 and 18): 20%
histological changes in the lung [2, 6]: no histological changes in the lung
inflammatory cells infiltration into airspaces [2, 6]: mild degree of inflammatory cells infiltration into airspaces
FXIIa-induced proliferation ([3H]-thymidine incorporation) (murine lung fibroblasts): blocked
Akt phosphorylation (Akt): attenuated
FXII activity (chromogenic substrate) (FXII [3]): blockade of FXII activity
